Results: the Immune Epitope Database (IEDB)

How the values were obtained:
[1] = target: HLA-B*07:02; test: IEDB peptide-MHC binding, purified MHC/direct/fluorescence; filed as Kd, often an IC50 or EC50 that approximates it; ≥ and ≤ were set here for values at or beyond the usual limits of such assays
[2] = target: HLA-B*44:02; test: as above
[3] = target: HLA-B*27:05; test: as above
[4] = target: HLA-B*46:01; test: as above
[5] = target: HLA-B*15:01; test: as above
[6] = target: HLA-B*58:01; test: as above
[7] = target: HLA-A*01:01; test: as above
[8] = target: HLA-B*15:09; test: as above
[9] = target: HLA-A*24:02; test: as above
[10] = target: HLA-A*02:01; test: as above
[11] = target: HLA-A*11:01; test: as above; settings: source organism: Influenza A virus (A/Hong Kong/507/97(H5N1))
[12] = target: HLA-B*08:01; test: as above; settings: source organism: Influenza A virus (A/Hong Kong/507/97(H5N1))
[13] = target: HLA-A*03:01; test: as above
[14] = target: HLA-B*40:01; test: as above
[15] = target: HLA-A*69:01; test: as above; settings: source organism: Influenza A virus (A/Hong Kong/507/97(H5N1))
[16] = target: HLA-A*26:01; test: as above
[17] = target: HLA-A*31:01; test: as above; settings: source organism: Influenza A virus (A/Hong Kong/507/97(H5N1))
[18] = target: HLA-B*15:01; test: IEDB peptide-MHC binding, purified MHC/competitive/radioactivity; filed as Kd, often an IC50 or EC50 that approximates it; ≥ and ≤ were set here for values at or beyond the usual limits of such assays; settings: source organism: Dengue virus 2 Jamaica/1409/1983
[19] = target: HLA-B*08:02; test: IEDB peptide-MHC binding, purified MHC/direct/fluorescence; filed as Kd, often an IC50 or EC50 that approximates it; ≥ and ≤ were set here for values at or beyond the usual limits of such assays; settings: source organism: Dengue virus 2 Thailand/16681/84
[20] = target: HLA-A*31:01; test: IEDB peptide-MHC binding, purified MHC/competitive/fluorescence; filed as Kd, often an IC50 or EC50 that approximates it; ≥ and ≤ were set here for values at or beyond the usual limits of such assays; settings: source organism: Influenza A virus (A/Fort Monmouth/1/1947-mouse adapted(H1N1))
[21] = target: HLA-A*02:11; test: IEDB peptide-MHC binding, purified MHC/direct/fluorescence; filed as Kd, often an IC50 or EC50 that approximates it; ≥ and ≤ were set here for values at or beyond the usual limits of such assays; settings: source organism: Influenza A virus(A/swine/Henan/5/2004(H9N2))
[22] = target: HLA-A*02:03; test: as above; settings: source organism: Influenza A virus(A/swine/Henan/5/2004(H9N2))
[23] = target: HLA-B*18:01; test: as above; settings: source organism: Influenza A virus (A/swine/Hong Kong/5190/99(H3N2))
[24] = target: HLA-A*02:19; test: as above; settings: source organism: Influenza A virus(A/swine/Henan/5/2004(H9N2))
[25] = source organism: Influenza A virus (A/Hong Kong/507/97(H5N1))
[26] = source organism: Influenza A virus (A/Taiwan/2/2006(H1N1))
[27] = source organism: Influenza A virus (A/swine/Hong Kong/5190/99(H3N2))
[28] = source organism: Influenza A virus (A/Puerto Rico/8/34/Mount Sinai(H1N1))
[29] = source organism: Influenza A virus(A/swine/Henan/5/2004(H9N2))

Work on GTSKIKMKW yielded a Kd [1, 25] of at least 20 µM, a Kd [2, 25] of at least 20 µM and a Kd [3, 25] of at least 20 µM. The Kd [4, 25] was at least 20 µM, the Kd [5, 25] was at least 20 µM and the Kd [6, 25] was 0.18 µM. The Kd [7, 25] was at least 20 µM, the Kd [8, 26] was at least 20 µM and the Kd [9, 25] was at least 20 µM. For the same sequence, the Kd [10, 25] was at least 20 µM, the Kd [11] was at least 20 µM and the Kd [12] was at least 20 µM. The Kd [13, 25] was at least 20 µM, the Kd [14, 25] was at least 20 µM and the Kd [15] was at least 20 µM. For the same sequence, the Kd [16, 26] was at least 20 µM and the Kd [17] was at least 20 µM.
QLKGMSYSM gave a Kd [18] of 0.0539 µM and a Kd [19] of at least 20 µM.
For YMFESKSMK, the Kd [20] was 0.0212 µM, the Kd [21] was 0.003 µM and the Kd [1, 27] was at least 20 µM. For the same sequence, the Kd [22] was 0.024 µM, the Kd [2, 27] was at least 20 µM and the Kd [3, 28] was 0.155 µM. The Kd [4, 27] was at least 20 µM, the Kd [5, 27] was at least 20 µM and the Kd [6, 27] was at least 20 µM. It also gave a Kd [23] of at least 20 µM, a Kd [7, 27] of at least 20 µM and a Kd [8, 29] of at least 20 µM. The Kd [9, 27] was at least 20 µM, the Kd [10, 28] was 0.478 µM and the Kd [13, 28] was 0.232 µM. The Kd [24] was at least 20 µM, the Kd [14, 27] was at least 20 µM and the Kd [16, 29] was at least 20 µM.
